± gives the uncertainty stated by the source.

A short description of this data set: abundance fitness (aPCA) (normalised: wild type 0, dead -1); higher = more abundant; growth selection in yeast, the domain comes from the species named. To be noted: Homo sapiens.
For the substance “BAG family molecular chaperone regulator 3 T34C, O95817”, the abundance fitness is -0.073 ± 0.13. Turning to “BAG family molecular chaperone regulator 3 T34E, O95817”, the abundance fitness was -0.183 ± 0.19. The same measure for “BAG family molecular chaperone regulator 3 T34G, O95817”: 0.064 ± 0.087; for “BAG family molecular chaperone regulator 3 T34H, O95817”: -0.495 ± 0.48. In turn, “BAG family molecular chaperone regulator 3 T34I, O95817” came in with an abundance fitness of 0.028 ± 0.2. “BAG family molecular chaperone regulator 3 T34K, O95817” returned an abundance fitness of 0.244 ± 0.23. The same measure for “BAG family molecular chaperone regulator 3 T34L, O95817”: -0.568 ± 0.084; for “BAG family molecular chaperone regulator 3 T34M, O95817”: 0.01 ± 0.23.

In turn, “BAG family molecular chaperone regulator 3 T34N, O95817” gave an abundance fitness of 0.336 ± 0.26. As for “BAG family molecular chaperone regulator 3 T34P, O95817”, the figure is -0.688 ± 0.14; as for “BAG family molecular chaperone regulator 3 T34Q, O95817”, -0.148 ± 0.1; as for “BAG family molecular chaperone regulator 3 T34R, O95817”, -0.391 ± 0.12. As for “BAG family molecular chaperone regulator 3 T34S, O95817”, the figure is 0.579 ± 0.089.

With “BAG family molecular chaperone regulator 3 T34V, O95817”, the abundance fitness was 0.011 ± 0.17.

“BAG family molecular chaperone regulator 3 T34W, O95817” registered an abundance fitness of -0.179 ± 0.083.

Regarding “BAG family molecular chaperone regulator 3 T46A, O95817”, the abundance fitness is -0.687 ± 0.32. As to “BAG family molecular chaperone regulator 3 T46C, O95817”, the abundance fitness is -0.312 ± 0.086.

As to “BAG family molecular chaperone regulator 3 T46G, O95817”, the abundance fitness is -0.65 ± 0.075.

Substance “BAG family molecular chaperone regulator 3 T46H, O95817” showed an abundance fitness of -0.571 ± 0.4. Consider “BAG family molecular chaperone regulator 3 T46I, O95817”, for which the abundance fitness is -0.285 ± 0.21.

“BAG family molecular chaperone regulator 3 T46K, O95817”: the abundance fitness was -0.435 ± 0.33. The same measure for “BAG family molecular chaperone regulator 3 T46L, O95817”: -0.53 ± 0.12. As for “BAG family molecular chaperone regulator 3 T46P, O95817”, the figure is -0.752 ± 0.32; as for “BAG family molecular chaperone regulator 3 T46Q, O95817”, -0.444 ± 0.14; as for “BAG family molecular chaperone regulator 3 T46R, O95817”, -0.225 ± 0.11. As for “BAG family molecular chaperone regulator 3 T46S, O95817”, the abundance fitness was -0.183 ± 0.12. For the substance “BAG family molecular chaperone regulator 3 T46V, O95817”, the abundance fitness was -0.531 ± 0.14. “BAG family molecular chaperone regulator 3 T46Y, O95817” yielded an abundance fitness of -0.358 ± 0.33. In the case of “BAG family molecular chaperone regulator 3 T47A, O95817”, the abundance fitness is -0.613 ± 0.17. The same measure for “BAG family molecular chaperone regulator 3 T47C, O95817”: -0.227 ± 0.27; for “BAG family molecular chaperone regulator 3 T47D, O95817”: -0.679 ± 0.42; for “BAG family molecular chaperone regulator 3 T47E, O95817”: -0.573 ± 0.15. Take “BAG family molecular chaperone regulator 3 T47G, O95817”: the abundance fitness was -0.796 ± 0.14.

“BAG family molecular chaperone regulator 3 T47H, O95817” came in with an abundance fitness of -0.736 ± 0.3. With “BAG family molecular chaperone regulator 3 T47I, O95817”, the abundance fitness was -0.468 ± 0.23. The same measure for “BAG family molecular chaperone regulator 3 T47L, O95817”: -0.613 ± 0.28. The same measure for “BAG family molecular chaperone regulator 3 T47M, O95817”: -0.564 ± 0.24.

Substance “BAG family molecular chaperone regulator 3 T47N, O95817” came in with an abundance fitness of -0.53 ± 0.2. Substance “BAG family molecular chaperone regulator 3 T47Q, O95817” registered an abundance fitness of -0.741 ± 0.14. As for “BAG family molecular chaperone regulator 3 T47R, O95817”, the figure is -0.728 ± 0.13; as for “BAG family molecular chaperone regulator 3 T47V, O95817”, -0.302 ± 0.073; as for “BAG family molecular chaperone regulator 3 T48I, O95817”, -0.354 ± 0.14. As for “BAG family molecular chaperone regulator 3 V12A, O95817”, the figure is -0.03 ± 0.12. As to “BAG family molecular chaperone regulator 3 V12D, O95817”, the abundance fitness was 0.092 ± 0.16. “BAG family molecular chaperone regulator 3 V12E, O95817” came in with an abundance fitness of -0.594 ± 0.26.

With “BAG family molecular chaperone regulator 3 V12F, O95817”, the abundance fitness stood at 0.051 ± 0.19. As to “BAG family molecular chaperone regulator 3 V12G, O95817”, the abundance fitness was -0.443 ± 0.069. In the case of “BAG family molecular chaperone regulator 3 V12H, O95817”, the abundance fitness was -0.48 ± 0.33. “BAG family molecular chaperone regulator 3 V12I, O95817” displayed an abundance fitness of 0.446 ± 0.11. “BAG family molecular chaperone regulator 3 V12L, O95817” displayed an abundance fitness of 0.208 ± 0.066. On to “BAG family molecular chaperone regulator 3 V12M, O95817”, for which the abundance fitness is -0.393 ± 0.4. “BAG family molecular chaperone regulator 3 V12N, O95817” displayed an abundance fitness of 0.139 ± 0.15.

Substance “BAG family molecular chaperone regulator 3 V12Q, O95817” came in with an abundance fitness of 0.065 ± 0.16. For “BAG family molecular chaperone regulator 3 V12R, O95817”, the abundance fitness was -0.594 ± 0.21.

“BAG family molecular chaperone regulator 3 V12S, O95817” had an abundance fitness of -0.14 ± 0.15. “BAG family molecular chaperone regulator 3 V12T, O95817” registered an abundance fitness of -0.52 ± 0.43. The substance “BAG family molecular chaperone regulator 3 V12W, O95817” came in with an abundance fitness of -0.571 ± 0.32. As for “BAG family molecular chaperone regulator 3 V12Y, O95817”, the figure is 0.199 ± 0.12; as for “BAG family molecular chaperone regulator 3 V40A, O95817”, -0.556 ± 0.17; as for “BAG family molecular chaperone regulator 3 V40C, O95817”, -0.269 ± 0.13.

In turn, “BAG family molecular chaperone regulator 3 V40D, O95817” yielded an abundance fitness of -0.808 ± 0.42. Substance “BAG family molecular chaperone regulator 3 V40E, O95817” came in with an abundance fitness of -0.661 ± 0.18. The substance “BAG family molecular chaperone regulator 3 V40F, O95817” came in with an abundance fitness of -0.533 ± 0.4.

“BAG family molecular chaperone regulator 3 V40G, O95817” displayed an abundance fitness of -0.541 ± 0.087. As for “BAG family molecular chaperone regulator 3 V40H, O95817”, the figure is -0.082 ± 0.17. For “BAG family molecular chaperone regulator 3 V40I, O95817”, the abundance fitness is -0.084 ± 0.069. The same measure for “BAG family molecular chaperone regulator 3 V40K, O95817”: -0.64 ± 0.098. Regarding “BAG family molecular chaperone regulator 3 V40L, O95817”, the abundance fitness was -0.664 ± 0.084.

The substance “BAG family molecular chaperone regulator 3 V40M, O95817” returned an abundance fitness of 0.03 ± 0.16. As for “BAG family molecular chaperone regulator 3 V40N, O95817”, the abundance fitness was 0.081 ± 0.23. With “BAG family molecular chaperone regulator 3 V40Q, O95817”, the abundance fitness was -0.642 ± 0.13. On to “BAG family molecular chaperone regulator 3 V40R, O95817”, for which the abundance fitness was -0.637 ± 0.13.

Take “BAG family molecular chaperone regulator 3 V40S, O95817”: the abundance fitness is -0.745 ± 0.21. Substance “BAG family molecular chaperone regulator 3 V40T, O95817” showed an abundance fitness of -0.959 ± 0.24. “BAG family molecular chaperone regulator 3 V40W, O95817” showed an abundance fitness of -0.468 ± 0.21. Consider “BAG family molecular chaperone regulator 3 V54A, O95817”, for which the abundance fitness is -0.719 ± 0.26.

“BAG family molecular chaperone regulator 3 V54C, O95817” yielded an abundance fitness of -0.022 ± 0.12. The substance “BAG family molecular chaperone regulator 3 V54D, O95817” came in with an abundance fitness of -0.08 ± 0.23. As for “BAG family molecular chaperone regulator 3 V54E, O95817”, the figure is -0.591 ± 0.28; as for “BAG family molecular chaperone regulator 3 V54F, O95817”, -0.375 ± 0.31; as for “BAG family molecular chaperone regulator 3 V54G, O95817”, -0.07 ± 0.077.
